From patent US20200190204A1

Target: hBAFF-R-GFP fusion protein on mouse fibroblast L cells (clone D2C) (human) (UniProt Q96RJ3)
Assay: flow cytometry on BAFF-R-expressing D2C L cells, 0.5 µg recombinant BAFF/10^6 cells, anti-BAFF-PE; unstained cells 0.0217; in the signal plot the 0 ng trace peaks between 10^2 and 10^3, the unstained one at about 10^2

gate number, percent of cells above the BAFF-PE line (no % sign printed): 59.6%
Substance: recombinant BAFF ligand (from UniProt Q9Y275 134-285)
